Test: yeast display, Sf9 membrane polyspecificity reagent, FACS + sequencing; frameworks hold sequencing errors
How it was run: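 Using colony PCR, genes from sorted yeast display clones were amplified, then sequenced on MiSeq at 2 × 250 and filtered by CDR length. The clones had been stained with 10% biotinylated, detergent-solubilized Sf9 membrane reagent for 1 hour at 4 °C and sorted by FACS into low and high (top ~1%) gates on anti-HA and streptavidin fluorescence. Polyreactivity labels come from the gate of origin.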
With “QVQLVESGGGLVQAGGSLRLSCAASGSTFVRNAMGWYRQAPGKERELVAGISTGDNTYYADSVKWRFTISRDNAKNTVYLQMISLKPEDTAVYYCNATKEFSFGLDYWGQGTQVTVSS” the “polyreactivity (PSR sort gate)” value was “low polyreactivity”.
For “QVQLVESGGGLVQAGGSLRLSCAASGRTFKWYPMGWYRQATGKERELVAGITSTGTTSYADSVKGRFTISRDNAKNTVYLQMNSLKPEDTAVYYCNTYYRWWKYDYWGQGTQVTVSS”, the “polyreactivity (PSR sort gate)” value was “high polyreactivity”.
With “QVQLVESGGGLVQSGGSLRLSCAASGSTLTFNAMGWYRQAPGKERELVAAISWSDTDTYYADSVKGRFTISRDNAKNTVYLQMNSLKPEDTAVYYCAATLSAYEMDYWGQGTQVTVSS” the “polyreactivity (PSR sort gate)” value was “low polyreactivity”.
In the case of “QVQLVESGGGLVQAGGSLRLSCAASGFIFWSNAMGWYRQAPGKERELVAAISWSGGSTYYADSVKGRFTISRDNAKNTVYLQMNSLKPEDTAVYYCNTLNVQRDEHDYWGQGTQVTVSS”, the “polyreactivity (PSR sort gate)” value was “high polyreactivity”.
In the case of “QVLLVESGGGLVQAGGSLRLSCAASGRTFGTNGMGWYRQAPGKERELVAVITWTGGSTYYADSVKGRFTITRDNEKNTVYLQMNSLKPEDTAVYYCAAKYSHLGYNYWGQGTQVTVSS”, the “polyreactivity (PSR sort gate)” value was “high polyreactivity”.
For “QVQLVESGGGLVQAGGSLRLSCAASGYIIARNAMGWYRQAPGKERELVAAIRSSGGSTYYADSVKGRFTISRDNAKNTVYLQMNSLKPEDTAVYYCAARILKRPKLYDYWGQGTQVTVSS”, the “polyreactivity (PSR sort gate)” value was “high polyreactivity”.
In the case of “QVQLVESGGGLVQAGGSLRLSCAASGITFGVYTMGWYRQAPGKEREFVAVISGRGGSTYYADSVKGRFTISRDNAKNTVYLQMNSLKPEDTAVYYCAADYYYIVDYWGQGTQVTVSS”, the “polyreactivity (PSR sort gate)” value was “high polyreactivity”.
With “QVQLVESGGGLVQAGGSLRLSCAASGRTFTRYSMGWYRQAPGKERELVATINSSGDRTYYADSVKGRFTISRDNAKNTVYLQMNSLKPEDTAVYYCAKRWSPYLYGYWGKGTQVTVSS” the “polyreactivity (PSR sort gate)” value was “high polyreactivity”.
In the case of “QVQLVESGGGLVQAGGSLRLSCAASGRIFPYYAMGWYRQAPGKERELVAVISTRGGSTYYADSVKGRFTISRDNAKNTVYLQMNSLKPEDTAVYYCAAKSVYRMGYWGQGTQVTVSS”, the “polyreactivity (PSR sort gate)” value was “high polyreactivity”.
For “QVQLVESGVCIVQAGGSLRLRCASSGSSLLNNAMGWYRQAPGKERELVAAITWSGGDTYYADSVKGRFTISRDNAKNTVYLQMNCLLQEDTAVYDCAADRYQWLTAYTDDLDHDYWGQGTQVTVSS”, the “polyreactivity (PSR sort gate)” value was “high polyreactivity”.
For “QVQLVESGGGLVQAGGSLRLSCAASGRIFGYYAMGWYRQAPGKERELVAAISSSDGSTYYADSVKGRFTISRDNAKNTVYLQMNSLKPEDTAVYYCAASYYNWDVYQLSYRYDYWGQGTQVTVSS”, the “polyreactivity (PSR sort gate)” value was “low polyreactivity”.
In the case of “QVQLVESGGGLVQAGGSLRLSCAASGRTFGKYAMGWYRQAPGKERELVAAITGDGGSTYYADSVKGRFTISRDNAKNTVYLQMNSLKPEDTAVYYCNADPQRRNYDYWGQGTQVTVSS”, the “polyreactivity (PSR sort gate)” value was “high polyreactivity”.
In the case of “QVQLVESGGGLVQAGGSLRLSCAASGSTFLYYAMGWYRPAPGKEREFVASISGSGGSTNYADSVKGRFTISRDNAKTTVYLQLNSLKPEDTAVYYCAAGYGGWAWNHVSYGGDYWGQGTQVTVSS”, the “polyreactivity (PSR sort gate)” value was “low polyreactivity”.
In the case of “QVQLVESGGGLVQAGGSLRLSCAASGIMFFYYAMGWYRQAPGKERELVAAISNSDTSTSYADSVKGRFTISRDNAKNSVYFQMNSLKPEDTAVYYCNADSPSLSGDYWGQGTQVTVSS”, the “polyreactivity (PSR sort gate)” value was “low polyreactivity”.
For “QVQLVESGGGLVQAGGSLRLSCAASGSIVPTYAMGWYRQAPGKERELVAAIRSGSNTYYADSVKGRFTISRDNAKNTVYLQMNSLKPEDTAVYYCNVGPQRKYPGRRTVPFGYWGQGTQVTVSS”, the “polyreactivity (PSR sort gate)” value was “low polyreactivity”.
With “QVQLVETGGGLVQAGGSLRLSCAASGRTFLYYAMGWYRPEPGKERELDAAIRRGSSTYYADSVKGRFTISRDKAKNTVYLQMNSLKPEDTAVYYCAARGRYRIGQGRYGKRYDYWGQGTQVTVSS” the “polyreactivity (PSR sort gate)” value was “high polyreactivity”.

From the nanobody polyreactivity screen of Harvey et al. (2022)
